Data taken from article PMC9657779, “Regulatory Role of Sphingosine-1-Phosphate and C16:0 Ceramide, in Immunogenic Cell Death of Colon Cancer Cells Induced by Bak/Bax-Activation” (Cancers, 2022).

Target: the molecule itself
Assay: non-reducing SDS-PAGE and Western blot; whole cell lysates of DLD-1 cells treated with ABT/AZD or MTX, with or without PF-543 (also thapsigargin, fumonisin B1; CerS6 knock-out cells), under non-reducing conditions, blotted for CRT; disulfide-linked dimer

B1: calreticulin (natural protein, human (endogenous in DLD-1), UniProt P27797 18-417, looked up)
chain: EPAVYFKEQFLDGDGWTSRWIESKHKSDFGKFVLSSGKFYGDEEKDKGLQTSQDARFYALSASFEPFSNKGQTLVVQFTVKHEQNIDCGGGYVKLFPNSLDQTDMHGDSEYNIMFGPDICGPGTKKVHVIFNYKGKNVLINKDIRCKDDEFTHLYTLIVRPDNTYEVKIDNSQVESGSLEDDWDFLPPKKIKDPDASKPEDWDERAKIDDPTDSKPEDWDKPEHIPDPDAKKPEDWDEEMDGEWEPPVIQNPEYKGEWKPRQIDNPDYKGTWIHPEIDNPEYSPDPSIYAYDNFGVLGLDLWQVKSGTIFDNFLITNDEAYAEEFGNETWGVTKAAEKQMKDKQDEEQRLKEEEEDKKRKEEEEAEDKEDDEDKDEDEEDEEDKEEDEEEDVPGQAKDEL
notes: calreticulin (CRT), the normally ER resident chaperone, endogenous in human colorectal DLD-1 cells; Seen as a disulfide-linked dimer on Western blots run under non-reducing conditions; also called CRT; ectoCRT; source: endogenous, DLD-1 whole cell lysate (RIPA)
  stoichiometry N: 2
